{"source": "paper PMC4699842", "about": "“Synthetic prions with novel strain-specified properties” (PLoS Pathogens, 2015)", "proteins": {"B1": {"name": "recombinant mouse prion protein residues 23-231 (recMoPrP(23–231)) (natural protein)", "chain": "not shown", "notes": "also called recPrP; rec full-length mouse (Mo) PrP"}}, "biological_target": "the molecule itself", "assay": "thioflavin-T fibrillization assay"}
{"protein": "B1", "values": [{"measurement": "binding result", "result": "binds"}]}
